Source: the supplement of paper PMC10567573

B1: COX4I1 (parent)
chain: VAHVKHLSASQKALKEKEKASWSS
B2: SMTNL2 (parent)
chain: AFTMAENLANCERLIEVEDMMVMG

Variants of: B1
Assay: protein stability index of a GFP-peptide fusion (GPS, HEK-293T) (PSI 1-6); higher = more stable
Conditions: c terminus: a fixed tail appended
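Note: lentivirally expressed fusions sorted by FACS into six bins by GFP to DsRed ratio, PSI derived from sequencing read proportions per bin multiplied by bin number.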

Protein stability index of substitutions, site by site:
S10: T 2.56; E 3.95; V 2.94; A 2.88
A2: N 2.81; I 2.29; V 2.72; P 3.77; Y 2.3; K 3.02; L 3.38; G 3.29; Q 3.46; S 3.25; R 2.77; E 3.77; T 3.86; C 3.44; W 2.92; D 3.6; M 3.19; H 3.72; F 2.23
A13: P 3.8; S 3.2; D 3.82; Q 2.63; M 2.95; N 3.58; E 3.64; H 3.17; C 3.37; W 2.08; L 2.91; Y 3.06; G 3.3; V 3.09; R 2.69; F 2.39; I 2.75; K 3.16; T 3.27
V4: K 3.48; G 3.47; M 3.55; N 3.64; R 2.91; H 3.74; F 2.83; C 3.34; E 3.71; D 3.45; Q 2.73; Y 3.27; W 3.25; S 3.35; T 4.15; A 4.1; L 2.88; I 3.03
K17: E 3.9; L 2.71; Q 3.53; C 2.83; T 3.21; G 3.86; D 3.92; S 3.23; R 3.49; P 3.32; A 3.62; F 3.31; V 2.95; N 3.81; H 3.26; M 3.01; I 2.83
Q11: Y 2.08; I 2.94; H 3.26; L 2.96; R 2.83; N 3.4; P 3.6; E 3.65; V 2.65; C 3.21; G 2.67; T 2.86; D 3.21; F 2.56; W 2.92; A 3.28; K 2.99; S 3.35; M 3.25
S8: Q 3.24; W 2.35; E 3.6; M 2.92; K 3.46; T 3.1; A 3.57; G 3.64; L 3.02; I 3.1; H 3.22; Y 2.55; R 3.11; N 3.53; V 2.7; D 3.86; C 2.41; F 2.2; P 3.62
K15: T 3.48; N 3.77; I 3.82; R 3.33; V 3.2; P 2.99; G 3.18; S 4.04; C 3.21; W 2.77; Q 3.5; D 3.96; F 3.21; A 3.78; E 4.08; M 3.94; Y 3; H 3.85; L 3.29
L7: W 2.84; G 3.99; I 3.79; S 3.6; A 2.27; H 3.72; Q 3.36; E 4.3; N 3.85; K 3.43; M 3.4; C 3.47; F 3.42; V 3.68; T 3.54; Y 3.36; R 2.99; P 3.91; D 4.03

Variants of: B2
Assay: as above
Conditions: c terminus: a fixed tail appended

Protein stability index, by site and new letter:
G24: M 1.96; F 2.22; R 2.47; N 2.45; H 1.59; Q 2.71; K 2.31; I 1.64; P 2.07; Y 1.27; S 2; L 1.74; T 1.68; V 1.03
